This is an account of results in patent US20260078195A1 (BEIJING MABWORKS BIOTECH, published 2026).

The target of assay [1] is T1, human CD3 complex on Jurkat cells (human, UniProt P07766 23-207; P04234 22-171; P09693 23-182; P20963 22-164).
T1 construct: whole, on cells; Endogenous CD3 complex of Jurkat / JURKAT-NFAT-Luc cells; also called human Jurkat T cells; CD3 on the surface of JURKAT-NFAT-Luc cells
As to the kind of experiment: FACS on Jurkat cells, PE goat anti-human IgG (H+L) secondary antibody, MFI. How it is done: (§1) The cells were re-suspended in PBS, counted, and centrifuged again to remove the supernatants. The cells were re-suspended in 2% FBS-PBS, to adjust the cell concentration to 4×10⁶/ml. Each kind of cells were added to 96-well U-bottom plates, 50 μl/well. The antibodies were diluted in 2% FBS-PBS, 5-fold serial dilution starting at 40 μg/ml, obtaining 12 concentrations in total. The 96-well plates were added with 50 μl antibody dilution, mixed well, and incubated at room temperature for 1 h. The plates were washed by 2% FBS-PBS, 200 μl/well, for three times. The plates were added with PE labelled goat-anti-human IgG (H+L) secondary antibody (1:500 diluted), 50 μl/well, and incubated at room temperature for 45 min. The plates were washed by 2% FBS-PBS, 200 μl/well, for three times. Finally the plates were added with 150 μl 2% FBS-PBS to re-suspend the cells, and the cells were tested in a flow cytometer. The data was processed in FlowJo and analyzed in GraphPad.

Assay [2] concerns the target T2, mouse BCMA expressed on HEK293A cells (mouse, UniProt O88472 1-185).
T2 construct: also called HEK293A/mouse BCMA cells
T2 sequence: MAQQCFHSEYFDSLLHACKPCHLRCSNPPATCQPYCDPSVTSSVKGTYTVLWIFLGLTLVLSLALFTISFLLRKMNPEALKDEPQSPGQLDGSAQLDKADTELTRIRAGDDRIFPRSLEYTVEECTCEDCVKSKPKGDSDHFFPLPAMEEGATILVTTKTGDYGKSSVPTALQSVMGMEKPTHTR
The assay is described as follows: FACS on HEK293A/mouse BCMA cells, PE goat anti-human IgG (H+L) secondary antibody, MFI. How it is done: as §1

In assay [3] the target is T3, human GPRC5D antigen (Cat #:HM05P, Kactus Biosystems) (human, UniProt Q9NZD1 1-345, limits assumed).
T3 construct: Bought antigen used as SPR analyte
The assay is described as follows: SPR (BIAcore 8K), antibody captured by anti-human Fc on CM5 chip, antigen as analyte. How it is done: (§2) The mouse anti-human Fe antibody (Cat #:BR100839, cytiva) was coupled to the surface of a CM5 chip. The antibody to be tested was diluted to 1 μg/ml with the HBS-EP buffer (Cat #:BR-1006-69, GE Life Sciences), to ensure about 100 RU of the antibody was captured by the anti-human Fe antibody. The human BCMA antigen (Cat #:BCA-H522y, ACRO), human CD3D&E protein (Cat #: CT038-H2508H, Sino biological), and human GPRC5D antigen (Cat #:HM05P, Kactus Biosystems) were diluted with HBS-EP buffer to […], respectively. Each protein at different concentrations was flowed through the surface of the stationary phase. Chips were regenerated by 3 M MgCl₂ solution. The kinetics assay was run with the Kinetics Wizard in BIAcore 8K's control software. […] The data was fitted in BIAcore 8K's evaluation software, and KD values of the test antibodies to the above antigens were determined and summarized in Table 1.
(In general: In SPR one partner is held on a chip, and binding of the other changes the refractive index at the surface.)

For assay [4], the target named is T4, human BCMA antigen (Cat #:BCA-H522y, ACRO) (human, UniProt Q02223 1-54).
T4 construct: Bought recombinant protein used as SPR analyte
T4 sequence: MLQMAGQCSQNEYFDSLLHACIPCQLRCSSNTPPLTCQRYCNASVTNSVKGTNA
The description is as above. How it is done:
as §2

The target in assay [5] is T5, human CD3D&E protein (Cat #: CT038-H2508H, Sino biological) (human, UniProt P04234 22-105; P07766 23-126).
T5 construct: Bought recombinant delta/epsilon complex used as SPR analyte; also called CD3D&E complex
The description is as above. How it is done: as §2

The target of assay [6] is T6, monkey BCMA expressed on HEK293A cells (monkey, UniProt Q02223 1-184 (human entry)).
T6 construct: also called HEK293A/monkey BCMA cells
As to the kind of experiment: FACS on HEK293A/monkey BCMA cells, PE goat anti-human IgG (H+L) secondary antibody, MFI. How it is done: as §1

Assay [7] concerns the target T7, human GPRC5D expressed on HEK293T cells (human, UniProt Q9NZD1 1-345).
T7 construct: also called HEK293T/human GPRC5D cells
As to the kind of experiment: FACS on HEK293T/human GPRC5D cells, PE goat anti-human IgG (H+L) secondary antibody, MFI. How it is done:
as §1

Assay [8] has as its target T8, human BCMA expressed on HEK293A cells (human, UniProt Q02223 1-184).
T8 construct: also called HEK293A/human BCMA cells
T8 sequence: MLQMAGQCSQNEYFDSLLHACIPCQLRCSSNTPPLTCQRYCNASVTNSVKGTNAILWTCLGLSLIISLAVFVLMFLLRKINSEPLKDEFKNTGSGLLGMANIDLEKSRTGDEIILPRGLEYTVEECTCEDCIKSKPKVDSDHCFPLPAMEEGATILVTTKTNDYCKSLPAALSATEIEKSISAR
As to the kind of experiment: FACS on HEK293A/human BCMA cells, PE goat anti-human IgG (H+L) secondary antibody, MFI. How it is done: as §1

Assay [9] addresses T9, monkey GPRC5D expressed on HEK293T cells (monkey, UniProt Q9NZD1 1-298 (human entry)).
T9 construct: also called HEK293T/monkey GPRC5D cells
T9 chain: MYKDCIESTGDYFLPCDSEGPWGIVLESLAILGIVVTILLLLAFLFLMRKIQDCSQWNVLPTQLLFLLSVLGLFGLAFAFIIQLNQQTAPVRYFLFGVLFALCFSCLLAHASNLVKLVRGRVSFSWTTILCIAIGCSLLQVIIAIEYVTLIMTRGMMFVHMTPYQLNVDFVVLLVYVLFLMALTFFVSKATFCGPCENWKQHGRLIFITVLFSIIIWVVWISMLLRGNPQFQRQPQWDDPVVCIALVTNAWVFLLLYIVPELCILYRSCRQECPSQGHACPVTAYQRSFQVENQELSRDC
The assay is described as follows: FACS on HEK293T/monkey GPRC5D cells, PE goat anti-human IgG (H+L) secondary antibody, MFI. How it is done: as §1

T3 sequence (Q9NZD1 whole entry): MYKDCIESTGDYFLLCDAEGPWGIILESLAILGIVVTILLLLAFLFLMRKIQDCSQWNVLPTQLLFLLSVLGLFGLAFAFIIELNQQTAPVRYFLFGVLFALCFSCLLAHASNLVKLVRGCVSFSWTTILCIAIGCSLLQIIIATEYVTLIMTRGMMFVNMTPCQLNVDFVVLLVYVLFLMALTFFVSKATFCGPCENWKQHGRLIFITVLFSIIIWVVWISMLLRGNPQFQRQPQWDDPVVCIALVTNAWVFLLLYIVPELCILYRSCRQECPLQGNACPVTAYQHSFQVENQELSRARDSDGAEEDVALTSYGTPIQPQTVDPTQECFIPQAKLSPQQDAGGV
T5 sequence (P04234 22-105, chain 1 of 2): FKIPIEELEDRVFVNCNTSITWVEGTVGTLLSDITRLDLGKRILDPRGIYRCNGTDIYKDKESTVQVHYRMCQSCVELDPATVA
T5 sequence (P07766 23-126, chain 2 of 2): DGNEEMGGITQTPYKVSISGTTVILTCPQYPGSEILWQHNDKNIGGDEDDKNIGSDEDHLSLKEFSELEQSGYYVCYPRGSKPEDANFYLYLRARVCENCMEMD
T1 sequence (P07766 23-207, chain 1 of 4): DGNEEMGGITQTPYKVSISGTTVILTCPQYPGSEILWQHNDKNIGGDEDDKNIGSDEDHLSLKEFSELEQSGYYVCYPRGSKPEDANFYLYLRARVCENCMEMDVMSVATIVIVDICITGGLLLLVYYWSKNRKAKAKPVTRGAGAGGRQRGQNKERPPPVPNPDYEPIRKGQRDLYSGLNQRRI
T1 sequence (P04234 22-171, chain 2 of 4): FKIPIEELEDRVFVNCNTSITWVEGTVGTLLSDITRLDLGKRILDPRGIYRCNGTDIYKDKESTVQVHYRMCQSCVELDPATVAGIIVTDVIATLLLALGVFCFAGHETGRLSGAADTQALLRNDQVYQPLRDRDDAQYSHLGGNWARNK
T1 sequence (P09693 23-182, chain 3 of 4): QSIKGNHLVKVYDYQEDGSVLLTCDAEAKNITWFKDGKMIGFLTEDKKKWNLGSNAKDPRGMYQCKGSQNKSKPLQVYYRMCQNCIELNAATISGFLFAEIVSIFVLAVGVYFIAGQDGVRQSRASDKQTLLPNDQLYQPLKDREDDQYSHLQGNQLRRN
T1 sequence (P20963 22-164, chain 4 of 4): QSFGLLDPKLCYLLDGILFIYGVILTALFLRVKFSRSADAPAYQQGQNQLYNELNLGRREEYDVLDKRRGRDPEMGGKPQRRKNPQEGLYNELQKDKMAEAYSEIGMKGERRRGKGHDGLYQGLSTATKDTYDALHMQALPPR
T6 sequence (Q02223 other isoform, or with tags, fused parts or gaps): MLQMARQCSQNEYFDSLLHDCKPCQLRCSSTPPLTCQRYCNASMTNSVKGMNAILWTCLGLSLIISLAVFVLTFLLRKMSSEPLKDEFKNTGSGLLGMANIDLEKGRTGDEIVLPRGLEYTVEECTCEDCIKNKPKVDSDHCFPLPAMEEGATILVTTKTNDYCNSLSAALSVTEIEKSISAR
T7 sequence (Q9NZD1 whole entry): as the sequence (Q9NZD1 whole entry) above

B1: JNJ-64407564 (bi-specific GPRC5D×CD3 antibody) (bispecific antibody)
chain 1: QVQLVQSGAEVKKPGASVKVSCKASGYSFTGYTMNWVRQAPGQGLEWMGLINPYNSDTNYAQKLQGRVTMTTDTSTSTAYMELRSLRSDDTAVYYCARVALRVALDYWGQGTLVTVSS
chain 2: DIQMTQSPSSLSASVGDRVTITCKASQNVATHVGWYQQKPGKAPKRLIYSASYRYSGVPSRFSGSGSGTEFTLTISNLQPEDFATYYCQQYNRYPYTFGQGTKLEIK
chain 3: EVQLVESGGGLVQPGGSLRLSCAASGFTFNTYAMNWVRQAPGKGLEWVARIRSKYNNYATYYAASVKGRFTISRDDSKNSLYLQMNSLKTEDTAVYYCARHGNFGNSYVSWFAYWGQGTLVTVSS
chain 4: QTVVTQEPSLTVSPGGTVTLTCRSSTGAVTTSNYANWVQQKPGQAPRGLIGGTNKRAPGTPARFSGSLLGGKAALTLSGVQPEDEAEYYCALWYSNLWVFGGGTKLTVL
Usually EC50 (read off the curve) stands for the midpoint of the concentration-response curve. For B1, in assay [1], the “EC50 (read off the curve)” value was ~0.06 µg/mL.

B2: MBS314 (tri-specific GPRC5D×BCMA×CD3 antibody) (other)
heavy 1: QVQLVQSGAEVKKPGASVKVSCKASGYTFTNHIIHWVRQAPGQGLEWMGYINPYPGYHGYNDKFSGRATMTSDTSTSTVYMELSSLRSEDTAVYYCARDGYYRDQDVLDYWGQGTLVTVSSGGGGSGGGGSGGGGSGGGGSDIQMTQSPSSLSASVGDRVTITCKASQDISQYLNWYQQKPGKAPKLLIYYTSGLHPGVPSRFSGSGSGTDFTFTISSLEPEDEATYYCQQGYALPWTFGQGTKLTAKGGGGSGGGGSGGGGSEVQLVESGGGLVQPGRSLRLSCAASGFTFDDFAMHWVRQAPGKGLEWVSGITWNSGSVGYADSVKGRFTISRDNAKKSLYLQMNSLRAEDTALYYCAKDRSGYGHYYYGMDVWGQGTTVTVASASTKGPSVFPLAPSSKSTSGGTAALGCLVKDYFPEPVTVSWNSGALTSGVHTFPAVLQSSGLYSLSSVVTVPSSSLGTQTYICNVNHKPSNTKVDKKVEPKSCDKTHTCPPCPAPEAAGGPSVFLFPPKPKDTLMISRTPEVTCVVVDVSHEDPEVKFNWYVDGVEVHNAKTKPREEQYASTYRVVSVLTVLHQDWLNGKEYKCKVSNKALPAPIEKTISKAKGQPREPQVYTLPPSREEMTKNQVSLWCLVKGFYPSDIAVEWESNGQPENNYKTTPPVLDSDGSFFLYSKLTVDKSRWQQGNVFSCSVMHEALHNHYTQKSLSLSPGK
light 1: not shown
heavy 2: QVQLQESGPGLVKPSETLSLTCTVSGYSITSDYAWNWIRQPPGKGLEWMGYISYSGSATYSPSLKSRITISRDTSKNQFSLKLSSVTAADTAVYYCARGGIAGRGRWGAMDYWGQGTTVTVSSASTKGPSVFPLAPSSKSTSGGTAALGCLVKDYFPEPVTVSWNSGALTSGVHTFPAVLQSSGLYSLSSVVTVPSSSLGTQTYICNVNHKPSNTKVDKKVEPKSCDKTHTCPPCPAPEAAGGPSVFLFPPKPKDTLMISRTPEVTCVVVDVSHEDPEVKFNWYVDGVEVHNAKTKPREEQYASTYRVVSVLTVLHQDWLNGKEYKCKVSNKALPAPIEKTISKAKGQPREPQVYTLPPSREEMTKNQVSLSCAVKGFYPSDIAVEWESNGQPENNYKTTPPVLDSDGSFFLVSKLTVDKSRWQQGNVFSCSVMHEALHNHYTQKSLSLSPGK
light 2: DIQMTQSPSSLSASVGDRVTITCKASQNVGTNVAWYQQKPGQSPKALIYSASYRDSGVPDRFSGSGSGTDFTLTISSLQPEDFATYYCQQYKSYPLTFGQGTRLEIKRTVAAPSVFIFPPSDEQLKSGTASVVCLLNNFYPREAKVQWKVDNALQSGNSQESVTEQDSKDSTYSLSSTLTLSKADYEKHKVYACEVTHQGLSSPVTKSFNRGEC
notes: also called antibody MBS314; tri-specific CD3×BCMA×GPRC5D antibody
By Kd is commonly meant the constant that tells how readily two partners part at equilibrium. For orientation: koff means the rate constant with which the complex falls apart. For orientation: kon means the second-order rate constant of association. As to B2, the binding result was “no binding” in [2] and “binds” in assay [1]. Moreover, the Kd came to 3.53 nM in assay [3], 0.441 nM in assay [4] and 249 nM in assay [5]. Further, the koff turned out to be 0.00174 s⁻¹ in [3], 0.000283 s⁻¹ in [4] and 0.00774 s⁻¹ in [5]. Further, the association rate constant (kon) in [3] was found to be 493000 M⁻¹ s⁻¹; in [4], 642000 M⁻¹ s⁻¹; in assay [5] it was 31100 M⁻¹ s⁻¹. Moreover, the “EC50 (read off the curve)” value was ~0.8 µg/mL in assay [6], ~0.4 µg/mL in [7], ~1 µg/mL in assay [8] and ~0.4 µg/mL in assay [9].
